Assay results reported in patent US20150203577A1 (Chugai, published 2015).

How the values were obtained:
[1] = molecular target: T1, mouse FcγRIII extracellular domain, C-terminally His-tagged (mouse, UniProt P08508 31-215); experiment: SPR Biacore T200
T1 construct: the whole entry is named; also called mFcγRIII; mFcgRIII
T1 chain: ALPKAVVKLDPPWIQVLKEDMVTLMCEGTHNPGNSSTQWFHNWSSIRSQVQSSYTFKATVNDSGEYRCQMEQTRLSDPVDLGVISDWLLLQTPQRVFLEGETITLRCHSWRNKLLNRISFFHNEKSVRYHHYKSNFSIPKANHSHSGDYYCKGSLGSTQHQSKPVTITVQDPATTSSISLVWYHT

[2] = molecular target: T2, mouse FcγRII extracellular domain, C-terminally His-tagged (mouse, UniProt P08101 30-210); experiment: SPR Biacore T200, KD ratio
T2 construct: the whole entry is named; also called mFcγRII; mFcgRII
T2 sequence: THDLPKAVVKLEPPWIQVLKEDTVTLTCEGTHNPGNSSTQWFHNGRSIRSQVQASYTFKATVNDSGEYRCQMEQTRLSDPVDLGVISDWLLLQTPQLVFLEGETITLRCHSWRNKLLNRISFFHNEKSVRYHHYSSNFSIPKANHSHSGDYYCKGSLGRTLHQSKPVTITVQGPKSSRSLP

[3] = molecular target: T3, mouse FcγRII extracellular domain, C-terminal His tag (mouse, UniProt P08101 30-210); experiment: SPR (Biacore T200); KD of H237-mIgG1/MRAL-k0 / KD of variant
T3 construct: Whole entry named; also called mFcγRII; mFcgRII
T3 sequence: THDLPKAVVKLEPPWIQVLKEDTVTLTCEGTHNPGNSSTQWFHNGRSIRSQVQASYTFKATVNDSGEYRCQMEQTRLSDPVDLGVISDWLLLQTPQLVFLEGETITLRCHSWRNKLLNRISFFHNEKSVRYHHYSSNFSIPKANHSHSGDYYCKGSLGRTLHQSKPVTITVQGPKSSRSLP
Protocol: (§1) Each altered antibody was analyzed for its interaction with each Fcγ receptor prepared above using Biacore T100 (GE Healthcare Japan Corp.), Biacore T200 (GE Healthcare Japan Corp.), Biacore A100, or Biacore 4000. The running buffer used was HBS-EP+ (GE Healthcare Japan Corp.). The assay temperature was set to 25° C. The sensor chips used were chips prepared by immobilizing Protein L (ACTIGEN or BioVision) onto Series S Sensor Chip CM5 (GE Healthcare Japan Corp.) or Series S Sensor Chip CM4 (GE Healthcare Japan Corp.) by the amine coupling method.
(§2) In order to calculate the KD value of each altered antibody for FcγR, kinetic analysis was conducted according to the following method: first, the antibody of interest was captured onto any of these chips and allowed to interact with mFcγR diluted with a running buffer. For the obtained sensorgram, the assay results were globally fit into the 1:1 Langmuir binding model using Biacore Evaluation Software to calculate an association rate constant ka (L/mol/s) and a dissociation rate constant kd (1/s). From these values, the dissociation constant KD (mol/L) was calculated.

[4] = molecular target: T4, mouse FcγRIII extracellular domain, C-terminal His tag (mouse, UniProt P08508 31-215); experiment: as above
T4 construct: Whole entry named; also called mFcγRIII; mFcgRIII
T4 chain: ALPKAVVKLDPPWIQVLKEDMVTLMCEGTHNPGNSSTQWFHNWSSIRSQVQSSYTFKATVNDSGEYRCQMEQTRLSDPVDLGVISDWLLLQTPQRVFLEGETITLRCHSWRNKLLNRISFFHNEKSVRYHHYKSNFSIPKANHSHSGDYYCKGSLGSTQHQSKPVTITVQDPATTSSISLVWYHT
Protocol: as §1, §2

Binder	binding result [1]	relative mFcγRII-binding activity (mIgG1 = 1) [2]	relative mFcγRII-binding activity (mIgG1 = 1) [3]	relative mFcγRIII-binding activity (mIgG1 = 1) [4]
H237-MB706/MRAL-k0 (antibody, mouse IgG1, kappa, copies: 2 + 2) heavy: QVQLQESGPGLVKPSETLSLTCAVSGHSISHDHAWSWVRQPPGEGLEWIGFISYSGITNYNPSLQGRVTISRDNSKNTLYLQMNSLRAEDTAVYYCARSLARTTAMDYWGEGTLVTVSSAKTTPPSVYPLAPGSAAQTNSMVTLGCLVKGYFPEPVTVTWNSGSLSSGVHTFPAVLQSDLYTLSSSVTVPSSTWPSETVTCNVAHPASSTKVDKKIVPRDCGCKPCICEPAEVEVVFIFPPKPKDVLTITLTPKVTCVVVDISKDDPEVQFSWFVDDVEVHTAQTQPREEQFNSTFRSVSELPIMHQDWLNGKEFKCRVNSAAFPAPIEKTISKTKGRPKAPQVYTIPPPKEQMAKDKVSLTCMITDFFPEDITVEWQWNGQPAENYKNTQPIMDTDGSYFVYSKLNVQKSNWEAGNTFTCSVLHEGLHNHHTEKSLSHSPGK light: not shown	no binding	0.23 fold	–	–
H237-MB707/MRAL-k0 (antibody, mouse IgG1, kappa, copies: 2 + 2) heavy: QVQLQESGPGLVKPSETLSLTCAVSGHSISHDHAWSWVRQPPGEGLEWIGFISYSGITNYNPSLQGRVTISRDNSKNTLYLQMNSLRAEDTAVYYCARSLARTTAMDYWGEGTLVTVSSAKTTPPSVYPLAPGSAAQTNSMVTLGCLVKGYFPEPVTVTWNSGSLSSGVHTFPAVLQSDLYTLSSSVTVPSSTWPSETVTCNVAHPASSTKVDKKIVPRDCGCKPCICEPAEVEIVFIFPPKPKDVLTITLTPKVTCVVVDISKDDPEVQFSWFVDDVEVHTAQTQPREEQFNSTFRSVSELPIMHQDWLNGKEFKCRVNSAAFPAPIEKTISKTKGRPKAPQVYTIPPPKEQMAKDKVSLTCMITDFFPEDITVEWQWNGQPAENYKNTQPIMDTDGSYFVYSKLNVQKSNWEAGNTFTCSVLHEGLHNHHTEKSLSHSPGK light: not shown	no binding	0.37 fold	–	–
H237-MB885/MRAL-k0 (antibody, mouse IgG1, kappa, copies: 2 + 2) heavy: QVQLQESGPGLVKPSETLSLTCAVSGHSISHDHAWSWVRQPPGEGLEWIGFISYSGITNYNPSLQGRVTISRDNSKNTLYLQMNSLRAEDTAVYYCARSLARTTAMDYWGEGTLVTVSSAKTTPPSVYPLAPGSAAQTNSMVTLGCLVKGYFPEPVTVTWNSGSLSSGVHTFPAVLQSDLYTLSSSVTVPSSTWPSETVTCNVAHPASSTKVDKKIVPRDCGCKPCICEPAEEESVFIFPPKPKDVLTITLTPKVTCVVVDISKDDPEVQFSWFVDDVEVHTAQTQPREEQFNSTFRSVSELPIMHQDWLNGKEFKCRVNSAAFPAPIEKTISKTKGRPKAPQVYTIPPPKEQMAKDKVSLTCMITDFFPEDITVEWQWNGQPAENYKNTQPIMDTDGSYFVYSKLNVQKSNWEAGNTFTCSVLHEGLHNHHTEKSLSHSPGK light: not shown	–	–	3.29 fold	0.13 fold
H237-MB884/MRAL-k0 (antibody, mouse IgG1, kappa, copies: 2 + 2) heavy: QVQLQESGPGLVKPSETLSLTCAVSGHSISHDHAWSWVRQPPGEGLEWIGFISYSGITNYNPSLQGRVTISRDNSKNTLYLQMNSLRAEDTAVYYCARSLARTTAMDYWGEGTLVTVSSAKTTPPSVYPLAPGSAAQTNSMVTLGCLVKGYFPEPVTVTWNSGSLSSGVHTFPAVLQSDLYTLSSSVTVPSSTWPSETVTCNVAHPASSTKVDKKIVPRDCGCKPCICEPNEESLVFIFPPKPKDVLTITLTPKVTCVVVDISKDDPEVQFSWFVDDVEVHTAQTQPREEQFNSTFRSVSELPIMHQDWLNGKEFKCRVNSAAFPAPIEKTISKTKGRPKAPQVYTIPPPKEQMAKDKVSLTCMITDFFPEDITVEWQWNGQPAENYKNTQPIMDTDGSYFVYSKLNVQKSNWEAGNTFTCSVLHEGLHNHHTEKSLSHSPGK light: not shown	–	–	2.46 fold	0.09 fold
H237-MB712/MRAL-k0 (antibody, mouse IgG1, kappa, copies: 2 + 2) heavy: QVQLQESGPGLVKPSETLSLTCAVSGHSISHDHAWSWVRQPPGEGLEWIGFISYSGITNYNPSLQGRVTISRDNSKNTLYLQMNSLRAEDTAVYYCARSLARTTAMDYWGEGTLVTVSSAKTTPPSVYPLAPGSAAQTNSMVTLGCLVKGYFPEPVTVTWNSGSLSSGVHTFPAVLQSDLYTLSSSVTVPSSTWPSETVTCNVAHPASSTKVDKKIVPRDCGCKPCICEPAEVEHVFIFPPKPKDVLTITLTPKVTCVVVDISKDDPEVQFSWFVDDVEVHTAQTQPREEQFNSTFRSVSELPIMHQDWLNGKEFKCRVNSAAFPAPIEKTISKTKGRPKAPQVYTIPPPKEQMAKDKVSLTCMITDFFPEDITVEWQWNGQPAENYKNTQPIMDTDGSYFVYSKLNVQKSNWEAGNTFTCSVLHEGLHNHHTEKSLSHSPGK light: not shown	no binding	0.16 fold	–	–
H237-MB878/MRAL-k0 (antibody, mouse IgG1, kappa, copies: 2 + 2) heavy: QVQLQESGPGLVKPSETLSLTCAVSGHSISHDHAWSWVRQPPGEGLEWIGFISYSGITNYNPSLQGRVTISRDNSKNTLYLQMNSLRAEDTAVYYCARSLARTTAMDYWGEGTLVTVSSAKTTPPSVYPLAPGSAAQTNSMVTLGCLVKGYFPEPVTVTWNSGSLSSGVHTFPAVLQSDLYTLSSSVTVPSSTWPSETVTCNVAHPASSTKVDKKIVPRDCGCKPCICTPAEEELVFIFPPKPKDVLTITLTPKVTCVVVDISKDDPEVQFSWFVDDVEVHTAQTQPREEQFNSTFRSVSELPIMHQDWLNGKEFKCRVNSAAFPAPIEKTISKTKGRPKAPQVYTIPPPKEQMAKDKVSLTCMITDFFPEDITVEWQWNGQPAENYKNTQPIMDTDGSYFVYSKLNVQKSNWEAGNTFTCSVLHEGLHNHHTEKSLSHSPGK light: not shown	–	–	0.47 fold	0.03 fold
H237-MB883/MRAL-k0 (antibody, mouse IgG1, kappa, copies: 2 + 2) heavy: QVQLQESGPGLVKPSETLSLTCAVSGHSISHDHAWSWVRQPPGEGLEWIGFISYSGITNYNPSLQGRVTISRDNSKNTLYLQMNSLRAEDTAVYYCARSLARTTAMDYWGEGTLVTVSSAKTTPPSVYPLAPGSAAQTNSMVTLGCLVKGYFPEPVTVTWNSGSLSSGVHTFPAVLQSDLYTLSSSVTVPSSTWPSETVTCNVAHPASSTKVDKKIVPRDCGCKPCICEPAEESLVFIFPPKPKDVLTITLTPKVTCVVVDISKDDPEVQFSWFVDDVEVHTAQTQPREEQFNSTFRSVSELPIMHQDWLNGKEFKCRVNSAAFPAPIEKTISKTKGRPKAPQVYTIPPPKEQMAKDKVSLTCMITDFFPEDITVEWQWNGQPAENYKNTQPIMDTDGSYFVYSKLNVQKSNWEAGNTFTCSVLHEGLHNHHTEKSLSHSPGK light: not shown	–	–	2.21 fold	0.11 fold
H237-MB886/MRAL-k0 (antibody, mouse IgG1, kappa, copies: 2 + 2) heavy: QVQLQESGPGLVKPSETLSLTCAVSGHSISHDHAWSWVRQPPGEGLEWIGFISYSGITNYNPSLQGRVTISRDNSKNTLYLQMNSLRAEDTAVYYCARSLARTTAMDYWGEGTLVTVSSAKTTPPSVYPLAPGSAAQTNSMVTLGCLVKGYFPEPVTVTWNSGSLSSGVHTFPAVLQSDLYTLSSSVTVPSSTWPSETVTCNVAHPASSTKVDKKIVPRDCGCKPCICEPNEEESVFIFPPKPKDVLTITLTPKVTCVVVDISKDDPEVQFSWFVDDVEVHTAQTQPREEQFNSTFRSVSELPIMHQDWLNGKEFKCRVNSAAFPAPIEKTISKTKGRPKAPQVYTIPPPKEQMAKDKVSLTCMITDFFPEDITVEWQWNGQPAENYKNTQPIMDTDGSYFVYSKLNVQKSNWEAGNTFTCSVLHEGLHNHHTEKSLSHSPGK light: not shown	–	–	1.47 fold	0.08 fold
H237-MB711/MRAL-k0 (antibody, mouse IgG1, kappa, copies: 2 + 2) heavy: QVQLQESGPGLVKPSETLSLTCAVSGHSISHDHAWSWVRQPPGEGLEWIGFISYSGITNYNPSLQGRVTISRDNSKNTLYLQMNSLRAEDTAVYYCARSLARTTAMDYWGEGTLVTVSSAKTTPPSVYPLAPGSAAQTNSMVTLGCLVKGYFPEPVTVTWNSGSLSSGVHTFPAVLQSDLYTLSSSVTVPSSTWPSETVTCNVAHPASSTKVDKKIVPRDCGCKPCICEPAEVERVFIFPPKPKDVLTITLTPKVTCVVVDISKDDPEVQFSWFVDDVEVHTAQTQPREEQFNSTFRSVSELPIMHQDWLNGKEFKCRVNSAAFPAPIEKTISKTKGRPKAPQVYTIPPPKEQMAKDKVSLTCMITDFFPEDITVEWQWNGQPAENYKNTQPIMDTDGSYFVYSKLNVQKSNWEAGNTFTCSVLHEGLHNHHTEKSLSHSPGK light: not shown	no binding	0.05 fold	–	–
H237-MB720/MRAL-k0 (antibody, mouse IgG1, kappa, copies: 2 + 2) heavy: QVQLQESGPGLVKPSETLSLTCAVSGHSISHDHAWSWVRQPPGEGLEWIGFISYSGITNYNPSLQGRVTISRDNSKNTLYLQMNSLRAEDTAVYYCARSLARTTAMDYWGEGTLVTVSSAKTTPPSVYPLAPGSAAQTNSMVTLGCLVKGYFPEPVTVTWNSGSLSSGVHTFPAVLQSDLYTLSSSVTVPSSTWPSETVTCNVAHPASSTKVDKKIVPRDCGCKPCICEPNEVERVFIFPPKPKDVLTITLTPKVTCVVVDISKDDPEVQFSWFVDDVEVHTAQTQPREEQFNSTFRSVSELPIMHQDWLNGKEFKCRVNSAAFPAPIEKTISKTKGRPKAPQVYTIPPPKEQMAKDKVSLTCMITDFFPEDITVEWQWNGQPAENYKNTQPIMDTDGSYFVYSKLNVQKSNWEAGNTFTCSVLHEGLHNHHTEKSLSHSPGK light: not shown	no binding	0.08 fold	–	–
